Experiments:
[1] = target: cell surface receptor composed of FGFR1c and co-receptor beta-Klotho (KLB) (human, UniProt P11362 22-822; Q86Z14 1-1044); assay: cell-based or functional assay
human beta-Klotho (KLB) = target: T1, human beta-Klotho (KLB) (human, UniProt Q86Z14 53-997); assay: BLI off-rate screen, supernatant;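 also: expression supernatants tested at 25 µg/mL, dissociation followed for 1800 s in D-PBS with 0.1% BSA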
T1 construct: Bought soluble protein; also called human KLB; ß-Klotho
T1 sequence (looked up): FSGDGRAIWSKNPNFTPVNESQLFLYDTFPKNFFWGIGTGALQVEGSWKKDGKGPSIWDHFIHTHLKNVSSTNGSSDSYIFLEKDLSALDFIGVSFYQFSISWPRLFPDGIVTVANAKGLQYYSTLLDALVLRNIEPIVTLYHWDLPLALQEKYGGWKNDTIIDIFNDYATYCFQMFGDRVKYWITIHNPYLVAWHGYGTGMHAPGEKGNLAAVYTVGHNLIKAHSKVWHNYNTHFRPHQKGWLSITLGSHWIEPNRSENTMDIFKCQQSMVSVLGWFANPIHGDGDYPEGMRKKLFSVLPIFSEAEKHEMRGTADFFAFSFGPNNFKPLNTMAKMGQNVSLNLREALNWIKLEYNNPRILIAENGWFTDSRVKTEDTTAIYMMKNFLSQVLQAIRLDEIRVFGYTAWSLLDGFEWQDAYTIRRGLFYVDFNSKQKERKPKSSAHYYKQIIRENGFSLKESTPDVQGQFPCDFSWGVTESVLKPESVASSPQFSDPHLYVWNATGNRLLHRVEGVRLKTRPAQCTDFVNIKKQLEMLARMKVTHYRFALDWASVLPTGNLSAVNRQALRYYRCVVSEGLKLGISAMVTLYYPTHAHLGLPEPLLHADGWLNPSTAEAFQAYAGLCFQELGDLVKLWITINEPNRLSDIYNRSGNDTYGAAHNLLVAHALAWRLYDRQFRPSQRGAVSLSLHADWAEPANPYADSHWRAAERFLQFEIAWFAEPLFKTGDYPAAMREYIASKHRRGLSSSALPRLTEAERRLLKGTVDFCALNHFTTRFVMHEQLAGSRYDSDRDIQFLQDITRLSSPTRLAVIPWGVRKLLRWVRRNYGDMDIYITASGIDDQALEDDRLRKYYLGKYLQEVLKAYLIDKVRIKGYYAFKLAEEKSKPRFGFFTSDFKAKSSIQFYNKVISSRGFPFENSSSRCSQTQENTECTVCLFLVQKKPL

Sequence of cell surface receptor composed of FGFR1c and co-receptor beta-Klotho (KLB) (P11362 22-822, chain 1 of 2): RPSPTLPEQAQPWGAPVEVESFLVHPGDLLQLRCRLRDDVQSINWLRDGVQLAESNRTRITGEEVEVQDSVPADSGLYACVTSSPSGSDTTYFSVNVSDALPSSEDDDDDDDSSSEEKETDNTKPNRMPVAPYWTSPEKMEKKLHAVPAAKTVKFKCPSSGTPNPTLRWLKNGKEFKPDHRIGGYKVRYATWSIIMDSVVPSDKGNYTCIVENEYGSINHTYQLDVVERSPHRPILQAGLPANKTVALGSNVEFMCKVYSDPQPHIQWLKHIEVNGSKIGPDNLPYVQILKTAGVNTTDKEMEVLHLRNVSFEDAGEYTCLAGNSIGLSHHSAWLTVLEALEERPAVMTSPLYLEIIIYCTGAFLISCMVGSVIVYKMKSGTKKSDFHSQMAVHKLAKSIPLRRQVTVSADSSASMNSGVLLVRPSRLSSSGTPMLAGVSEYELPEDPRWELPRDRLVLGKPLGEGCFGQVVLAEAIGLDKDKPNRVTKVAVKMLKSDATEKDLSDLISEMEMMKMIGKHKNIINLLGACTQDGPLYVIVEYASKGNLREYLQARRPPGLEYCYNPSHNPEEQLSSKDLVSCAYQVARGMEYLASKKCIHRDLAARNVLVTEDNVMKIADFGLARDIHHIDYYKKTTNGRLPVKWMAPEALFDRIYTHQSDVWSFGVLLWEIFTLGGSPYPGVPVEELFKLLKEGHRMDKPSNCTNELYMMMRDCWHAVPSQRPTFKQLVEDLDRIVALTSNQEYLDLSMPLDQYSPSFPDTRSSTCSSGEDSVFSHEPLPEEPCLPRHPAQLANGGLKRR
Sequence of cell surface receptor composed of FGFR1c and co-receptor beta-Klotho (KLB) (Q86Z14 whole entry, chain 2 of 2): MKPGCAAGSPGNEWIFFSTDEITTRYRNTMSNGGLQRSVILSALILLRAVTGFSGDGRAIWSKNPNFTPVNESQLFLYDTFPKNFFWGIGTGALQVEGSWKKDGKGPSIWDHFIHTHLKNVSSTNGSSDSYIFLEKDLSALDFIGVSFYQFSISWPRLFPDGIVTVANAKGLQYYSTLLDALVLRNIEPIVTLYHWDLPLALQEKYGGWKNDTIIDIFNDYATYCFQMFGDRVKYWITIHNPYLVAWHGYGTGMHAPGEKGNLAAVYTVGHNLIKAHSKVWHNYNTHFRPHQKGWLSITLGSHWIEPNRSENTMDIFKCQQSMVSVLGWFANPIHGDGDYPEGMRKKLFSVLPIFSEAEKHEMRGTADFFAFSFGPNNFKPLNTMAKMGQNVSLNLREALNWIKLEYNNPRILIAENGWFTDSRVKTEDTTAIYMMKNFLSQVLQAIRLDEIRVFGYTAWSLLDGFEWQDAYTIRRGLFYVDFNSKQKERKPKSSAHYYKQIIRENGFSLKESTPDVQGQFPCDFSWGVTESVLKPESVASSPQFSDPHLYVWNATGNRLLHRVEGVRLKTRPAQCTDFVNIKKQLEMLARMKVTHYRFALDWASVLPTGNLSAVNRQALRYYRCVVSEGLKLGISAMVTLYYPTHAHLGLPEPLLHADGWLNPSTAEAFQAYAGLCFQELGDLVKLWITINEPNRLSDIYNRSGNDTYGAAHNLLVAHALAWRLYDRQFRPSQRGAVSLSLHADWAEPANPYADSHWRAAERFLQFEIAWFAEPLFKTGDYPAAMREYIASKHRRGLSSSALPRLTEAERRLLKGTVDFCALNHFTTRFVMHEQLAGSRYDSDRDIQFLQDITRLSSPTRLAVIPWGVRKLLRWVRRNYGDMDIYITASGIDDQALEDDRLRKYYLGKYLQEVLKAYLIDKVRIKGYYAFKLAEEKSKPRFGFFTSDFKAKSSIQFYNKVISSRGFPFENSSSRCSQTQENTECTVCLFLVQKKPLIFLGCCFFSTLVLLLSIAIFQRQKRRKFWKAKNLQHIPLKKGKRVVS

| Binder | Mean E max, Luciferase reporter gene assay [1] | Mean EC50, Luciferase reporter gene assay [1] | koff (human beta-Klotho (KLB)) |
| --- | --- | --- | --- |
| 16H7 light chain variant G28T (antibody, human IgG4 S228P, lambda, V domains shown) VH: not shown VL: SYVLTQPPSVSVAPGQTARITCGGNNITSESVHWYQQKPGQAPVLVVYDDSDRPSGIPERFSGSNSGNTATLTISRVEAGDEADYYCQVWDGNSDHVVFGGGTKLTVLG | 110% | 0.187 nM | 1.5e-06 s⁻¹ |
| 16H7 light chain variant S29D (antibody, human IgG4 S228P, lambda, V domains shown) VH: not shown VL: SYVLTQPPSVSVAPGQTARITCGGNNIGDESVHWYQQKPGQAPVLVVYDDSDRPSGIPERFSGSNSGNTATLTISRVEAGDEADYYCQVWDGNSDHVVFGGGTKLTVLG | 109% | 0.136 nM | 4.5e-05 s⁻¹ |
| 16H7 light chain variant S29E (antibody, human IgG4 S228P, lambda, V domains shown) VH: not shown VL: SYVLTQPPSVSVAPGQTARITCGGNNIGEESVHWYQQKPGQAPVLVVYDDSDRPSGIPERFSGSNSGNTATLTISRVEAGDEADYYCQVWDGNSDHVVFGGGTKLTVLG | 114% | 0.102 nM | 2.3e-05 s⁻¹ |
| 16H7 light chain variant G28W (antibody, human IgG4 S228P, lambda, V domains shown) VH: not shown VL: SYVLTQPPSVSVAPGQTARITCGGNNIWSESVHWYQQKPGQAPVLVVYDDSDRPSGIPERFSGSNSGNTATLTISRVEAGDEADYYCQVWDGNSDHVVFGGGTKLTVLG | 96% | 0.142 nM | 3.7e-05 s⁻¹ |
| 16H7 light chain variant S29C (antibody, V domains shown, copies: 2 + 2) VH: not shown VL: SYVLTQPPSVSVAPGQTARITCGGNNIGCESVHWYQQKPGQAPVLVVYDDSDRPSGIPERFSGSNSGNTATLTISRVEAGDEADYYCQVWDGNSDHVVFGGGTKLTVLG | 108% | 0.172 nM | 5e-05 s⁻¹ |
| 16H7 light chain variant I27C (antibody, human IgG4 S228P, lambda, V domains shown) VH: not shown VL: SYVLTQPPSVSVAPGQTARITCGGNNCGSESVHWYQQKPGQAPVLVVYDDSDRPSGIPERFSGSNSGNTATLTISRVEAGDEADYYCQVWDGNSDHVVFGGGTKLTVLG | 106% | 0.16 nM | 3.8e-05 s⁻¹ |
| 16H7 light chain variant I27Y (antibody, human IgG4 S228P, lambda, V domains shown) VH: not shown VL: SYVLTQPPSVSVAPGQTARITCGGNNYGSESVHWYQQKPGQAPVLVVYDDSDRPSGIPERFSGSNSGNTATLTISRVEAGDEADYYCQVWDGNSDHVVFGGGTKLTVLG | 96% | 0.116 nM | 4.2e-05 s⁻¹ |
| 16H7 light chain variant I27N (antibody, V domains shown, copies: 2 + 2) VH: not shown VL: SYVLTQPPSVSVAPGQTARITCGGNNNGSESVHWYQQKPGQAPVLVVYDDSDRPSGIPERFSGSNSGNTATLTISRVEAGDEADYYCQVWDGNSDHVVFGGGTKLTVLG | 96% | 0.162 nM | 4.5e-05 s⁻¹ |
| 16H7 light chain variant I27Q (antibody, human IgG4 S228P, lambda, V domains shown) VH: not shown VL: SYVLTQPPSVSVAPGQTARITCGGNNQGSESVHWYQQKPGQAPVLVVYDDSDRPSGIPERFSGSNSGNTATLTISRVEAGDEADYYCQVWDGNSDHVVFGGGTKLTVLG | 103% | 0.144 nM | 6.1e-05 s⁻¹ |
| 16H7 light chain variant I27R (antibody, V domains shown, copies: 2 + 2) VH: not shown VL: SYVLTQPPSVSVAPGQTARITCGGNNRGSESVHWYQQKPGQAPVLVVYDDSDRPSGIPERFSGSNSGNTATLTISRVEAGDEADYYCQVWDGNSDHVVFGGGTKLTVLG | 105% | 0.131 nM | 2.2e-05 s⁻¹ |
| 16H7 light chain variant G28Y (antibody, human IgG4 S228P, lambda, V domains shown) VH: not shown VL: SYVLTQPPSVSVAPGQTARITCGGNNIYSESVHWYQQKPGQAPVLVVYDDSDRPSGIPERFSGSNSGNTATLTISRVEAGDEADYYCQVWDGNSDHVVFGGGTKLTVLG | 109% | 0.131 nM | 5.3e-05 s⁻¹ |
| 16H7 light chain variant I27W (antibody, human IgG4 S228P, lambda, V domains shown) VH: not shown VL: SYVLTQPPSVSVAPGQTARITCGGNNWGSESVHWYQQKPGQAPVLVVYDDSDRPSGIPERFSGSNSGNTATLTISRVEAGDEADYYCQVWDGNSDHVVFGGGTKLTVLG | 104% | 0.156 nM | 6.5e-05 s⁻¹ |
| 16H7 light chain variant I27H (antibody, V domains shown, copies: 2 + 2) VH: not shown VL: SYVLTQPPSVSVAPGQTARITCGGNNHGSESVHWYQQKPGQAPVLVVYDDSDRPSGIPERFSGSNSGNTATLTISRVEAGDEADYYCQVWDGNSDHVVFGGGTKLTVLG | 100% | 0.098 nM | 3.3e-05 s⁻¹ |
| 16H7 light chain variant I27A (antibody, human IgG4 S228P, lambda, V domains shown) VH: not shown VL: SYVLTQPPSVSVAPGQTARITCGGNNAGSESVHWYQQKPGQAPVLVVYDDSDRPSGIPERFSGSNSGNTATLTISRVEAGDEADYYCQVWDGNSDHVVFGGGTKLTVLG | 107% | 0.111 nM | 5.3e-05 s⁻¹ |
| 16H7 light chain variant I27V (antibody, V domains shown, copies: 2 + 2) VH: not shown VL: SYVLTQPPSVSVAPGQTARITCGGNNVGSESVHWYQQKPGQAPVLVVYDDSDRPSGIPERFSGSNSGNTATLTISRVEAGDEADYYCQVWDGNSDHVVFGGGTKLTVLG | 104% | 0.136 nM | 3.3e-05 s⁻¹ |
| 16H7 light chain variant S29F (antibody, V domains shown, copies: 2 + 2) VH: not shown VL: SYVLTQPPSVSVAPGQTARITCGGNNIGFESVHWYQQKPGQAPVLVVYDDSDRPSGIPERFSGSNSGNTATLTISRVEAGDEADYYCQVWDGNSDHVVFGGGTKLTVLG | 116% | 0.19 nM | 1.9e-05 s⁻¹ |
| 16H7 light chain variant I27F (antibody, V domains shown, copies: 2 + 2) VH: not shown VL: SYVLTQPPSVSVAPGQTARITCGGNNFGSESVHWYQQKPGQAPVLVVYDDSDRPSGIPERFSGSNSGNTATLTISRVEAGDEADYYCQVWDGNSDHVVFGGGTKLTVLG | 104% | 0.118 nM | 2e-05 s⁻¹ |
| 16H7 light chain variant I27M (antibody, human IgG4 S228P, lambda, V domains shown) VH: not shown VL: SYVLTQPPSVSVAPGQTARITCGGNNMGSESVHWYQQKPGQAPVLVVYDDSDRPSGIPERFSGSNSGNTATLTISRVEAGDEADYYCQVWDGNSDHVVFGGGTKLTVLG | 97% | 0.087 nM | 6e-05 s⁻¹ |
| 16H7 light chain variant I27P (antibody, human IgG4 S228P, lambda, V domains shown) VH: not shown VL: SYVLTQPPSVSVAPGQTARITCGGNNPGSESVHWYQQKPGQAPVLVVYDDSDRPSGIPERFSGSNSGNTATLTISRVEAGDEADYYCQVWDGNSDHVVFGGGTKLTVLG | 107% | 0.145 nM | 3.5e-06 s⁻¹ |
| 16H7 light chain variant I27T (antibody, V domains shown, copies: 2 + 2) VH: not shown VL: SYVLTQPPSVSVAPGQTARITCGGNNTGSESVHWYQQKPGQAPVLVVYDDSDRPSGIPERFSGSNSGNTATLTISRVEAGDEADYYCQVWDGNSDHVVFGGGTKLTVLG | 97% | 0.152 nM | 3.3e-05 s⁻¹ |
| 16H7 light chain variant S29A (antibody, V domains shown, copies: 2 + 2) VH: not shown VL: SYVLTQPPSVSVAPGQTARITCGGNNIGAESVHWYQQKPGQAPVLVVYDDSDRPSGIPERFSGSNSGNTATLTISRVEAGDEADYYCQVWDGNSDHVVFGGGTKLTVLG | 100% | 0.153 nM | 1e-05 s⁻¹ |

Reference: patent US20220010021A1 (Sanofi, published 2022)
